# Experimental data from patent publication US9745384B2, “Peptides useful for modulating histone demethylase function” (The Brigham and Women's Hospital, Inc., priority 2012, dated 2017).
# How the values were obtained:
# [1] = tested on: nucleosomes purified from HeLa; experiment: Nucleosome pulldown by GST-NPAC proteins; assay type: binding
# Method: Nucleosomes were purified from HeLa as previously described (Umlauf et al., 2004). To examine nucleosome binding selectivity of NPAC, 5 μg GST fusion protein bound to glutathione agarose were incubated with 20 μg nucleosomes overnight at 4° C. in nucleosome binding buffer (50 mM NaPO4 pH 7.4, 200 mM NaCl, 0.5% NP-40, 5% glycerol, 10 μM ZnSO4, 1 mM MgCl2, 1 mM DTT, 0.1 mM PMSF). After washing 4 times with the same buffer at 4° C., the beads were boiled in 1×SDS sample loading buffer and elute was resolved by 15% SDS-PAGE for immunoblot analysis or coomassie staining.
# For free-DNA competition assays, human genomic DNA was purified from HeLa cells and fragmented to an average size around 300 bp by sonication. Equal amounts of GST-NPAC.d5 bound to glutathione beads were pre-incubated with 0, 5, 10, 25 μg genomic DNA fragments in nucleosome binding buffer for 30 minutes at room temperature, and equal amounts of nucleosomes were added and incubated overnight at 4° C. After extensive washing, GST-NPAC.d5 and bound nucleosomes were eluted by boiling in 1×SDS sample loading buffer, resolved by SDS-PAGE and stained with coomassie blue.
# [2] = tested on: double strand DNA; experiment: DNA binding assay (GST-pulldown)
# Method: 5-10 μg GST and GST-tagged NPAC truncation proteins were incubated with 1 μg linearized plasmid DNA overnight at 4° C. in 50 mM Tris pH 7.4, 200 mM NaCl, 0.2% NP-40, 1 mM MgCl2, 1 mM EDTA, 1 mM DTT, 0.02 mM ZnSO4. After extensive washing with the same buffer, bound DNA was eluted by incubating with 100 μl 10 mM Tris pH 8.0, 1% SDS for 15 minutes at 65° C. Pulldown DNA was purified using Qiagen PCR purification kit, resolved by agarose gel electrophoresis and stained with Ethidium Bromide.
# [3] = tested on: H3Kc36me3 nucleosomes; experiment: MLA nucleosome pulldown by GST-NPAC.d1; assay type: binding; settings: H3Kc36me3, H3Kc79me3, H3Kc9me3, H3Kc27me3, unmodified
# Method: MLA nucleosomes were reconstituted using 147 bp double-strand alpha satellite DNA and recombinant histones expressed and purified from E. coli. Tri-methylation was chemically introduced to H3K9C, H3K27C, H3K36C and H3K79C histones respectively as described (Simon et al., 2007). 2 μg MLA nucleosome was used for GST-pulldown as described above.
molecule,measurement,setting,value
"NPAC.d1: Example 2 GST-NPAC truncation, residues 1-150 (protein, UniProt Q49A26 1-150, looked up, fragment, GST tag) MAAVSLRLGDLVWGKLGRYPPWPGKIVNPPKDLKKPRGKKCFFVKFFGTEDHAWIKVEQLKPYHAHKEEMIKINKGKRFQQAVDAVEEFLRRAKGKDQTSSHNSSDDKNRRNSSEERSRPNSGDEKRKLSLSEGKVKKNMGEGKKRVSSG",Nucleosome binding (GST-pulldown),[1],strong binding to nucleosomes
same,DNA binding (GST-pulldown),[2],can bind to double strand DNA
same,Binding to modification-specific MLA nucleosomes,[3],highest binding affinity for H3Kc36me3 nucleosomes over H3Kc79me3
